Assay results published in patent US6762290, “High affinity vascular endothelial growth factor (VEGF) receptor nucleic acid ligands and inhibitors” (Gilead Sciences, Inc.).
Numbering of substitutions follows the chain as printed.

Columns and labels:
[1] = molecular target: T1, VEGFR2 (KDR) extracellular domain/Fc (Homo sapiens, UniProt P35968 P35968:20-764); test: filter; conditions: tags: C-terminal human IgG1 Fc fusion with Factor Xa site and His6; R&D Systems; NSO mouse myeloma cells; chain copies: 2 (stated, disulfide-linked homodimer)
T1 sequence (P35968 20-764, one chain of several): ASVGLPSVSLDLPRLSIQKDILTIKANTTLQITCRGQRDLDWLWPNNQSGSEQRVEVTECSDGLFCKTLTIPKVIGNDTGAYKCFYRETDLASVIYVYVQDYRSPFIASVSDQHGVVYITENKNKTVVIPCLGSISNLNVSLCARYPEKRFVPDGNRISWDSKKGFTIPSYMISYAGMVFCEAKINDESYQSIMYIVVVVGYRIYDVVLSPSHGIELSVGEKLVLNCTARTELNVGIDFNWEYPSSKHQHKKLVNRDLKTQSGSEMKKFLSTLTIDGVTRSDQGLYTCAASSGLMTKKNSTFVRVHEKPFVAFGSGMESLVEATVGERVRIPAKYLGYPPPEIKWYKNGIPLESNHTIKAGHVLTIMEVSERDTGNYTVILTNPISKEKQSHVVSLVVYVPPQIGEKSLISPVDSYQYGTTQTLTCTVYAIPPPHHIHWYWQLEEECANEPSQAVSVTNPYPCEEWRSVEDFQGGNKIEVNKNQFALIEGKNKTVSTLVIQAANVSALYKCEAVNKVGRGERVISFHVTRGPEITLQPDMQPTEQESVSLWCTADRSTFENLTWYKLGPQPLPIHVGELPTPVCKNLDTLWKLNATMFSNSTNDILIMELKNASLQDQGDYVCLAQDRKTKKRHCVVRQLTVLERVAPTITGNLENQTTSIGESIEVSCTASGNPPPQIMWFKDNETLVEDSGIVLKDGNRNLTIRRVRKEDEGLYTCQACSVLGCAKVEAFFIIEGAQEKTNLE

[2] = molecular target: T1, VEGFR2 (KDR) extracellular domain/Fc; test: filter; 30N clone; conditions: tags: C-terminal human IgG1 Fc fusion with Factor Xa site and His6; R&D Systems; NSO mouse myeloma cells; chain copies: 2 (stated, disulfide-linked homodimer)
[3] = molecular target: T2, VEGF receptors on HUVEC (VEGFR2/KDR) (Homo sapiens, UniProt P35968 P35968:20-1356); test: competition; inhibition of 125I-VEGF-165 binding to HUVEC
T2 sequence (P35968 20-1356, one chain of several): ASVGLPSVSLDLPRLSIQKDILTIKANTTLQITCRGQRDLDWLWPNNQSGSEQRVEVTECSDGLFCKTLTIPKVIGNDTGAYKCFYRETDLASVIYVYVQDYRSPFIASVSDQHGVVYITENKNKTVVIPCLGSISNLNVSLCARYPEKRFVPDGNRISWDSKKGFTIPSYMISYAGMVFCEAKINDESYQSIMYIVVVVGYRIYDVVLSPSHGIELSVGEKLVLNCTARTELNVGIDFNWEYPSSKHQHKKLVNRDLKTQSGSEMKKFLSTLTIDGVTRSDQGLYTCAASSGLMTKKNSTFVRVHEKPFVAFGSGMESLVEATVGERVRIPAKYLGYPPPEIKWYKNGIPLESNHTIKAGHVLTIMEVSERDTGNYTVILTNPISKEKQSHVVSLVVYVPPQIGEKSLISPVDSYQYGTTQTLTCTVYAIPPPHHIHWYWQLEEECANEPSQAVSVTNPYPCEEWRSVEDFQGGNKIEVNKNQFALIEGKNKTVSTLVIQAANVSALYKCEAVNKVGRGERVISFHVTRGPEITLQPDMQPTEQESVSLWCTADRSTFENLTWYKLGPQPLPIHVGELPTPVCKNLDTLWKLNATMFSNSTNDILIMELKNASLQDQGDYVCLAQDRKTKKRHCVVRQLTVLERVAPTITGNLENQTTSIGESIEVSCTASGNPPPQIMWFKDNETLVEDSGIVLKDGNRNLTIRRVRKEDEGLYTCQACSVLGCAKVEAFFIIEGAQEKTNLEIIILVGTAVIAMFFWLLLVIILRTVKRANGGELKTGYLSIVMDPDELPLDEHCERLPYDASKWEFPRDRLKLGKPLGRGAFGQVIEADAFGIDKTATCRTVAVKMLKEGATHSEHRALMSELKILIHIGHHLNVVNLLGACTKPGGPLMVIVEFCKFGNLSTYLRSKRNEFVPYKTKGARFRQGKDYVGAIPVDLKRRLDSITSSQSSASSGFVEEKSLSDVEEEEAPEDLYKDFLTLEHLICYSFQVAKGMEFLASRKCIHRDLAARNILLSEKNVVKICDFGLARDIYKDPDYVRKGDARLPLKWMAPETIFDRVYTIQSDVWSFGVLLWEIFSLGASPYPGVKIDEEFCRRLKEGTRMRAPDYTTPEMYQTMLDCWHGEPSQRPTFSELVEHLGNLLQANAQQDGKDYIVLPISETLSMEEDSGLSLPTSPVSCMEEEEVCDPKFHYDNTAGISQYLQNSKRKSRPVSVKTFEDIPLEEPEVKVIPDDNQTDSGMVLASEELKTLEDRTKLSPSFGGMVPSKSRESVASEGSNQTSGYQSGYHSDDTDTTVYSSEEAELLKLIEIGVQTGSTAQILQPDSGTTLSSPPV
Experimental: (§1) We next examined whether a group of representative aptamers was able to inhibit the binding of [125]I-VEGF-165 to VEGF receptors expressed on HUVECs. Cells were seeded in 96-well plates at a density of about 10,000 cells/well and maintained until confluent. Culture medium was then replaced with growth factor deficient medium (MEM, 5% heat inactivated fetal bovine serum, 1 µg/ml heparin) for 3–4 hours. Cells were then washed with Dulbecco's phosphate-buffered saline (DPBS) (containing 1 mM CaCl_2, 1 mM MgCl_2 and 0.1% bovine serum albumin) followed by the addition of 100 µl/well of DPBS. [125]I-VEGF-165 ([…]) in the presence of varying amounts of aptamers (0.001–1000 nM) was then added to cells for 2 hours at room temperature. Unbound [125]I-VEGF-165 was then removed by washing with DPBS and the cells were lysed with Triton X-100. Lysates were harvested onto glass fiber filters plates and processed for scintillation counting. Aptamers K1, K10, K17 and K21 were tested. […] Thus, among the VEGFR2 aptamers tested, both receptor binding antagonists and non-antagonists have been identified.

[4] = molecular target: T1, VEGFR2 (KDR) extracellular domain/Fc; test: filter; circularly permuted family member; conditions: tags: C-terminal human IgG1 Fc fusion with Factor Xa site and His6; R&D Systems; NSO mouse myeloma cells; chain copies: 2 (stated, disulfide-linked homodimer)
[5] = molecular target: T2, VEGF receptors on HUVEC (VEGFR2/KDR); test: competition; inhibition of 125I-VEGF-165 binding to HUVEC, DPBS with Ca, Mg, room temperature
Experimental: as §1

[6] = molecular target: T1, VEGFR2 (KDR) extracellular domain/Fc; test: filter; Table 2 prints CCACGGC where listing has ccaccgc; conditions: tags: C-terminal human IgG1 Fc fusion with Factor Xa site and His6; R&D Systems; NSO mouse myeloma cells; chain copies: 2 (stated, disulfide-linked homodimer)

B1: K1 (ssRNA)
RNA: GGGAGGACGAUGCGGGGCCUGUUUGGAUCAUACCGAUCGUCAAUCCAAGAGUGGUCAGACGACUCGCCCGA
modifications: 2'-F pyrimidines
Kd [1]: 0.07 nM

B2: K13 (ssRNA)
RNA: GGGAGGACGAUGCGGAACCAAUUAAGUCUGGCAAAUCUCUCUGUGCAGACGACUCGCCCGA
modifications: 2'-F pyrimidines
Kd [2]: 0.75 nM

B3: K23 (ssRNA)
RNA: GGGAGGACGAUGCGGACACACACAUCAUAAACAUUGUCCGUUGACCAGACGACUCGCCCGA
modifications: 2'-F pyrimidines
Kd [2]: 2.2 nM

B4: K12 (ssRNA)
RNA: GGGAGGACGAUGCGGAAACGGAAGAAUUGGAGACCGACGUCGACCUCUUGGCCCCAGACGACUCGCCCGA
modifications: 2'-F pyrimidines
Kd [1]: 15.4 nM

B5: K21 (ssRNA)
RNA: GGGAGGACGAUGCGGAUCAUACCGAAGAGACACGGGGCCACCAUAUCCUCACCCCCAGACGACUCGCCCGA
modifications: 2'-F pyrimidines
IC50 [3]: 79 nM
Kd [4]: 0.26 nM

B6: K10 (ssRNA)
RNA: GGGAGGACGAUGCGGUUGAUCGAGGUUCUAAGGCCUAUUUCCUGACUUUCUCCCCCAGACGACUCGCCCGA
modifications: 2'-F pyrimidines
Kd [1]: 0.47 nM
IC50 [5]: 1 nM

B7: K2 (ssRNA)
RNA: B1 RNA with A47U, G49A
modifications: 2'-F pyrimidines
Kd [1]: 0.27 nM

B8: K4 (ssRNA)
RNA: GGGAGGACGAUGCGGAGGUGCUCCUUUGGAACUUCGUAUUUGUCUGCUCCUGGUCAGACGACUCGCCCGA
modifications: 2'-F pyrimidines
Kd [1]: 0.28 nM

B9: K5 (ssRNA)
RNA: GGGAGGACGAUGCGGCAUGGGGCCUGACUGGAUCAUACCACCGCUUCCUCUGGUCAGACGACUCGCCCGA
modifications: 2'-F pyrimidines
Kd [1]: 0.44 nM

B10: K7 (ssRNA)
RNA: GGGAGGACGAUGCGGACGAUAACACAGGGCCUGCUUGGAUCACACUGAUUGCGCCCAGACGACUCGCCCGA
modifications: 2'-F pyrimidines
Kd [1]: 0.46 nM

B11: K3 (ssRNA)
RNA: B9 RNA with C47U
modifications: 2'-F pyrimidines
Kd [6]: 0.51 nM

B12: K11 (ssRNA)
RNA: B6 RNA with G32A
modifications: 2'-F pyrimidines
Kd [1]: 0.61 nM
